The source of these data is paper PMC3770644 (PLoS ONE, 2013).

In assay [1] the target is T1, ubiquitin (whether His-tagged or not is not told for the experiment) (UniProt P0CG48 1-76).
T1 construct: ubiquitin, the 76-residue cut product (residues up to Gly76 are named); The methods list His-tagged and non His-tagged ubiquitin; It may carry the C-terminal His tag of m6; 15N- or 13C,15N-labelled in some NMR experiments; source: purchased from Spectra Isotopes or obtained as described in [12]; [18]
The assay can be described thus: NMR titration; unlabelled SH3 domain titrated into 0.25 mM 15N-ubiquitin; 1H-15N HSQC chemical shift perturbation; 25 °C; 50 mM NaPi, 1 mM DTT, pH 6.0. The following applies: both partners purified.

Assay [2] concerns the target T1, ubiquitin (whether His-tagged or not is …). The assay is described as follows: other fluorescence titration + ITC; 25 °C; ubiquitin stock titrated into the SH3 domain; ITC in 20 mM cacodylate, pH 6.0, about 50 µM SH3 in the cell and about 800 µM ubiquitin; intrinsic tryptophan fluorescence (excitation 298 nm), apparent affinities; model of a single set of identical sites. The note with it: both partners purified.

Substitutions are numbered along the chain they refer to. Numbers in names are those of the source.

B1: CIN85 F322Y SH3-C (domain or fragment, UniProt Q96B97 270-328, looked up)
chain: DYCKVIFPYEAQNDDELTIKEGDIVTLINKDCIDVGWWEGELNGRRGVFPDNYVKLLPP
notes: CIN85 third SH3 domain (SH3-C) with F322Y; limits as the WT construct CIN85-SH3C(270-328)His6; Site-directed mutagenesis (QuikChange) of the WT construct m4; also called CIN85 SH3-C F322Y mutant; CIN85 F322Y SH3-C mutant; source: E. coli BL21/DE3, purified like the WT CIN85 SH3-C
As to B1, the binding result in assay [1] is recorded as “binds”.

B2: CD2AP F324Y SH3-C (domain or fragment)
chain: AKEYCRTLFPYTGTNEDELTFREGEIIHLISKETGEAGWWKGELNGKEGVFPDNYAVQIS
notes: CD2AP third SH3 domain (SH3-C) with F324Y; Site-directed mutagenesis (QuikChange) of the WT construct m3; also called SH3-C F324Y mutant; F324Y CD2AP SH3-C; source: E. coli BL21/DE3, purified like the WT CD2AP SH3-C
Turning to B2, the Kd in assay [2] is 24 ± 3 µM.

B3: CD2AP SH3-C T283A mutant (domain or fragment)
chain: B2 chain with T14A, Y55F
notes: CD2AP third SH3 domain (SH3-C) with T283A (RT loop); Mutant of m3; source: purchased from Topgene and expressed as the WT domains; purified
For B3, the binding result in assay [1] is “binds”.
